Assay [1] deals with MBP-E6 F2V (human papillomavirus type 16). The assay is described as follows: bead-based binding assay on filter plates (alkaline phosphatase luminescence); MBP-E6 held on amylose beads at indicated concentrations or 0.67 uM; E6AP-BAP added at 50 nM, 1-3 h, room temperature; 400 mM NaCl, 50 mM Tris-HCl pH 6.8, 0.1% milk, 1 mM DTT; amylose bead control subtracted.
In assay [2] the target is E6AP-BAP (aa 371-440) fusion protein (UniProt Q05086).
Assay [3] deals with T1, E6AP-BAP (aa 371-440) fusion protein (UniProt Q05086 371-440).
T1 sequence (looked up): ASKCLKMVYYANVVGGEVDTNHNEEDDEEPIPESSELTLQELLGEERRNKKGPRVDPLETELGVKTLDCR
Description: cell-based or functional assay.

The values that follow come from article PMC4767726, “Molecular Probing of the HPV-16 E6 Protein Alpha Helix Binding Groove with Small Molecule Inhibitors” (PLoS ONE, 2016).

Molecule “E6AP-BAP (aa 371-440) fusion protein (from UniProt Q05086 371-440) (domain or fragment)” returned a percent of the wild-type binding capacity (% of wild type) in assay [1] of 70.

In the case of MBP-E6 R55A (natural protein), the p53 in vitro degradation by purified MBP-E6 in rabbit reticulocyte lysate, 2 h; activity against wild type in assay [2] came out at 50%. In assay [2], MBP-E6 R102A (natural protein) had a p53-luciferase reporter level in C33A cells transfected with HPV-16 E6 expression vector (untagged, pLXSN), EC50 in ng of DNA of 172 ng; a p53 in vitro degradation, 3 h incubation, 0.25 and 1 uM MBP-E6 R102A; decrease of p53 of 50%.

B1: MBP-HPV-16 E6 (wild-type) (natural protein, human papillomavirus type 16, UniProt P03126 1-158, looked up)
chain: MHQKRTAMFQDPQERPRKLPQLCTELQTTIHDIILECVYCKQQLLRREVYDFAFRDLCIVYRDGNPYAVCDKCLKFYSKISEYRHYCYSLYGTTLEQQYNKPLCDLLIRCINCQKPLCPEEKQRHLDKKQRFHNIRGRWTGRCMSCCRSSRTRRETQL
Take B1: in assay [3], the “p53-luciferase reporter level in C33A cells transfected with HPV-16 E6 expression vector (untagged, pLXSN), EC50 in ng of DNA” value was 32 ng.
